From publication PMC5053136 (Acta Crystallographica. Section D, Structural Biology, 2016)

Biological target: the molecule itself
Assay: SAXS with online ion-exchange chromatography (IEC-SAXS)

B1: D5_(323–785), the D5N and helicase domains of the Vaccinia virus helicase–primase D5 (domain or fragment)
chain: GNKLFNIAQRILDTNSVLLTERGDYIVWINNSWKFNSEEPLITKLILSIRHQLPKEYSSELLCPRKRKTVEANIRDMLVDSVETDTYPDKLPFKNGVLDLVDGMFYSGDDAKKYTCTVSTGFKFDDTKFVEDSPEMEELMNIINDIQPLTDENKKNRELYEKTLSSCLCGATKGCLTFFFGETATGKSTTKRLLKSAIGDLFVETGQTILTDVLDKGPNPFIANMHLKRSVFCSELPDFACSGSKKIRSDNIKKLTEPCVIGRPCFSNKINNRNHATIIIDTNYKPVFDRIDNALMRRIAVVRFRTHFSQPSGREAAENNDAYDKVKLLDEGLDGKIQNNRYRFAFLYLLVKWYKKYHVPIMKLYPTPEEIPDFAFYLKIGTLLVSSSVKHIPLMTDLSKKGYILYDNVVTLPLTTFQQKISKYFNSRLFGHDIESFINRHKKFANVSDEYLQYIFIEDISSP
notes: also called D5R fragment
stoichiometry N: 6
